For experiment [1], the target named is T1, human CD3ε in the TCR/CD3 complex on Jurkat cells (human, UniProt P07766 23-207). The experiment can be described thus: cell-based or functional assay.
In experiment [2] the target is T1, human CD3ε in the TCR/CD3 complex on …. The experiment can be described thus: flow cytometry, Jurkat cells (approximate calculation). As to the method:
Jurkat and C4-2B cells were labelled at approximately 100,000 cells per well, in 96-well plates, with serial dilutions of bispecific constructs ranging in concentration from of 0.1 to 300 nM, for 30 min on ice. Primary label was followed by washes and incubation with PE-labeled minimum cross species reactive secondary antibody, goat anti-human IgG Fcγ, F(ab′)2 (Jackson Laboratory) for 30 minutes on ice. Washes and incubation were done in staining buffer (PBS with 0.2% BSA and 2 mM EDTA). Cells were collected using an BD™ LSRII or a BD FACSymphony™ flow cytometer (BD Biosciences) and analyzed by FlowJo flow cytometry analysis software. Median fluorescence intensity (MFI) of bound molecules on cells was determined after exclusion of doublets. Results were plotted and nonlinear regression analysis to determine EC50 values was performed using GraphPad Prism 7® graphing and statistics software.
On Jurkat cells (FIG. 11B), a range of binding potencies was observed. […] Swapping the orientation of the CD3-binding domain from VH-VL (PSMA01071) to VL-VH (PSMA01086) further reduced binding to CD3 in the C-terminus. The maximum CD3-binding signal differed between the constructs with N-terminal CD3-binding domain constructs showing the highest maximum binding. However, potency (EC50) and not maximum binding correlated with function, as will be shown in the next example.

For experiment [3], the target named is T2, Full-length Human PSMA (TSC435), on cells (human, UniProt Q04609 1-750).
T2 construct: also called CHOK1SV/huPSMA; PSMA on C4-2B, 22RV1, LNCaP, MDA-PCa-2b cells
T2 sequence (Q04609 whole entry): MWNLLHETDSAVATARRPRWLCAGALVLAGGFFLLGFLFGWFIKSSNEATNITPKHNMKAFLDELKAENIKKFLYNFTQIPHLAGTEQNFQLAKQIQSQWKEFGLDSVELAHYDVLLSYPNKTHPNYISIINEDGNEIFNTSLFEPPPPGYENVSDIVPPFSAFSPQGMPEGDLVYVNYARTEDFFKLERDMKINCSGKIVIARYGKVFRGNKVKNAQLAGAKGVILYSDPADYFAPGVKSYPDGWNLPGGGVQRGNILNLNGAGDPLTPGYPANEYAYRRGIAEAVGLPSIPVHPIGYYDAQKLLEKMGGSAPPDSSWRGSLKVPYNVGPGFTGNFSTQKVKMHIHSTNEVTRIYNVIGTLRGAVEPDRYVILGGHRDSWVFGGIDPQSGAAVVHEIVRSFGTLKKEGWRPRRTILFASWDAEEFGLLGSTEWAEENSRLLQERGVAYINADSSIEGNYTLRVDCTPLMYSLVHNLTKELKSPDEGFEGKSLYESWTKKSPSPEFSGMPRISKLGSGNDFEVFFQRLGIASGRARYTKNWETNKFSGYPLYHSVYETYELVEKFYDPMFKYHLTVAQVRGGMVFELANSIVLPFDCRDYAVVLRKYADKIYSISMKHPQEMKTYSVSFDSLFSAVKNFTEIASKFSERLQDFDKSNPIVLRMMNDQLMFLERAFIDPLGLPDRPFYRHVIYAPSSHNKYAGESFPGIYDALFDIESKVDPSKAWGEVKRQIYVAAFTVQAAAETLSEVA
The experiment can be described thus: flow cytometry on C4-2B cells, PE goat anti-human IgG Fc secondary, MFI (median).

The target of experiment [4] is T1, human CD3ε in the TCR/CD3 complex on …. Kind of experiment: flow cytometry on Jurkat cells, PE goat anti-human IgG Fc secondary, MFI (median).
Experiment [5] has the same target. The experiment can be described thus: flow cytometry on Jurkat cells, MFI (median).
Experiment [6] has as its target T3, Human PSMA ECD-AFH (TSC033), recombinant dimeric PSMA ECD (human, UniProt Q04609 44-750).
T3 construct: SEC-purified dimer; also called HuPSMA-AFH; Avi-His-Human PSMA ECD
The experiment can be described thus: SPR (Biacore T200), human PSMA dimer ECD 10X His (TSC033), 1:1 fit.

The target of the next experiment is T4, mIgG Fc-human PSMA ECD (human).
T4 construct: Called PSMA dimer in the SPR method; also called mFc-Hu PSMA ECD; murine Fc-tagged human PSMA ECD
Kind of experiment: SPR (Biacore T200), bispecific amine-coupled, mFc-PSMA dimer 1-81 nM as analyte, 1:1 fit. As to the method: (§1) SPR studies were performed on a subset of bispecific constructs binding to Human and cynomolgus primate PSMA ectodomain (ECD) fused to the c-terminus of a murine IgG1 Fc region. These experiments were conducted at 25° C. in dPBS (Gibco, 14040-133) with 0.2% BSA buffer on a Biacore T200 system. Bispecific constructs were immobilized at a density of ˜2,000-4,000 response units (RU) onto individual flow cells of a CM5 research-grade sensor chip (GE) by standard amine coupling chemistry, leaving one flow cell surface unmodified as the reference. Using a multi-cycle kinetics mode, a buffer blank and […] different concentrations of the PSMA dimer ranging from 1 nM to 81 nM in dPBS with 0.2% BSA were sequentially injected through each flow cell at 30 μL/min for 300 seconds followed by a 600 second dissociation phase. Regeneration was achieved by injection of 10 mM glycine pH 2.0 at a flow rate of 30 μL/min for 40 seconds followed by dPBS with 0.2% BSA buffer stabilization for 1 min.
(§2) Sensorgrams obtained from kinetic SPR measurements were analyzed by the double subtraction method. The signal from the reference flow cell was subtracted from the analyte binding response obtained from flow cells with captured ligands. The buffer blank response was then subtracted from analyte binding responses and the final double-referenced data were analyzed with Biacore T200 Evaluation software (2.0, GE), globally fitting data to derive kinetic parameters. All sensorgrams were fitted using a simple one-to-one binding model.

For a further experiment, the target named is T5, mIgG Fc-cyno PSMA ECD (cynomolgus monkey).
T5 construct: Called PSMA dimer in the SPR method; also called mFc-Cyno PSMA ECD; murine Fc-tagged cyno PSMA ECD
T5 chain: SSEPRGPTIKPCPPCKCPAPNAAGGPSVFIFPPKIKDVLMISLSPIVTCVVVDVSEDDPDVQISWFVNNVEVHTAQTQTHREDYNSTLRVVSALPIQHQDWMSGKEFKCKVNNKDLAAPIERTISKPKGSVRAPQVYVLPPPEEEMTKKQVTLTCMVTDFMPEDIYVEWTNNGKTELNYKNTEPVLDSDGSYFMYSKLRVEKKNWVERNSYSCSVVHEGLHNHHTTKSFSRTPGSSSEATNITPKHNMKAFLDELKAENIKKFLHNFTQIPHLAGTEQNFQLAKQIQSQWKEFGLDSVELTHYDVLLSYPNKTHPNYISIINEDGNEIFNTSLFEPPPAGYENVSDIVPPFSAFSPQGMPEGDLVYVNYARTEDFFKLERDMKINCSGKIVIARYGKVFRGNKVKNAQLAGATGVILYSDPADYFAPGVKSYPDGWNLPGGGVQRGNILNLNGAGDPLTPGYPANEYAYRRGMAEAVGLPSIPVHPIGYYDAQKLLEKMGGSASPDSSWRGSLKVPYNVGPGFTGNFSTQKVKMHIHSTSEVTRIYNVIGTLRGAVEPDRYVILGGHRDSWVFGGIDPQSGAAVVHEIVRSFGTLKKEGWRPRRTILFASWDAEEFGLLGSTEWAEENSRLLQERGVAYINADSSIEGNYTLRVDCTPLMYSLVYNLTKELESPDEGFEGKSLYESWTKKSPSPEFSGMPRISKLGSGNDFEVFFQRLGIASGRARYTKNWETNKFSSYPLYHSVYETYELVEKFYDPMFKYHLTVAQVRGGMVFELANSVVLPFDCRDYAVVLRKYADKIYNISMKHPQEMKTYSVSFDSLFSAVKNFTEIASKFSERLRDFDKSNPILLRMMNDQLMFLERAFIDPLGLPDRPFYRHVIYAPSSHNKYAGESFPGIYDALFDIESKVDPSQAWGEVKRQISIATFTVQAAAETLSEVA
Described as above. As to the method: as §1, §2

Some results are limits rather than exact numbers.

T1 sequence (P07766 23-207, one chain of several): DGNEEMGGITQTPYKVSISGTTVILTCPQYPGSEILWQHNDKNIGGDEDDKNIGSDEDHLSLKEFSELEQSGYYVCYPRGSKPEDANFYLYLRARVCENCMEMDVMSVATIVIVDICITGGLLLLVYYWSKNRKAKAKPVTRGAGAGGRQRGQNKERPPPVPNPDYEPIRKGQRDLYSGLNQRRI
T3 sequence (Q04609 other isoform, or with tags, fused parts or gaps): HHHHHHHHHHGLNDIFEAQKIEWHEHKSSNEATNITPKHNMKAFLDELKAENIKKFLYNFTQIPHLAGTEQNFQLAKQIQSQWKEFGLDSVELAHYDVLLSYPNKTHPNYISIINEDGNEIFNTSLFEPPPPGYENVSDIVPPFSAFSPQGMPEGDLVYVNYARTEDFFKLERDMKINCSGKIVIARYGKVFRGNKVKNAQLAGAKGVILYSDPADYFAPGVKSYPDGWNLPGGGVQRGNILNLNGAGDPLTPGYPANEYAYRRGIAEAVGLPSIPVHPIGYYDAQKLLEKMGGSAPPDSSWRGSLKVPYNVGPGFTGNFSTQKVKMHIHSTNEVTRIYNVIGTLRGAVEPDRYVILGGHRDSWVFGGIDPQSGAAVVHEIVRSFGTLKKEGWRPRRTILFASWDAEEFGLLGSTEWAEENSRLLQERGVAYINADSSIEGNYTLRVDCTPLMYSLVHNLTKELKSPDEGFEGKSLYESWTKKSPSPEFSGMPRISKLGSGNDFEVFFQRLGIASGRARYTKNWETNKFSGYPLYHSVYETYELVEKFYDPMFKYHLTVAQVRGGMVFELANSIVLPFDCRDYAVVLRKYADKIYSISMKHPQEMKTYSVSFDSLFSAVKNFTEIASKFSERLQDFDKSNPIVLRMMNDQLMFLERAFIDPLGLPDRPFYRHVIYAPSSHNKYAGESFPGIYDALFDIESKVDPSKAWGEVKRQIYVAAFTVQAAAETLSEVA

B1: PSMA01071 Anti PSMA scFv x Fc; Anti PSMA scFv x Fc x Anti CD3 scFv (bispecific antibody)
chain 1: QVQLVQSGAEVKKPGASVKVSCKASGYTFTDYYMHWVRQAPGQGLEWMGYFNPYNDYTRYAQKFQGRVTMTRDTSTSTVYMELSSLRSEDTAVYYCARSDGYYDAMDYWGQGTTVTVSSGGGGSGGGGSGGGGSGGGGSDIQMTQSPSSLSASVGDRVTITCRASKSISKYLAWYQQKPGKAPKLLIHSGSSLESGVPSRFSGSGSGTEFTLTISSLQPDDFATYYCQQHIEYPWTFGQGTKVEIKEPKSSDKTHTCPPCPAPPAAAPSVFLFPPKPKDTLMISRTPEVTCVVVDVSHEDPEVKFNWYVDGVEVHNAKTKPREEQYNSTYRVVSVLTVLHQDWLNGKEYKCAVSNKALPAPIEKTISKAKGQPREPQVYTLPPSRDELTKNQVSLWCLVKGFYPSDIAVEWESNGQPENNYKTTPPVLDSDGSFFLYSKLTVDKSRWQQGNVFSCSVMHEALHNHYTQKSLSLSPG
chain 2: QVQLVQSGAEVKKPGASVKVSCKASGYTFTDYYMHWVRQAPGQGLEWMGYFNPYNDYTRYAQKFQGRVTMTRDTSTSTVYMELSSLRSEDTAVYYCARSDGYYDAMDYWGQGTTVTVSSGGGGSGGGGSGGGGSGGGGSDIQMTQSPSSLSASVGDRVTITCRASKSISKYLAWYQQKPGKAPKLLIHSGSSLESGVPSRFSGSGSGTEFTLTISSLQPDDFATYYCQQHIEYPWTFGQGTKVEIKEPKSSDKTHTCPPCPAPPAAAPSVFLFPPKPKDTLMISRTPEVTCVVVDVSHEDPEVKFNWYVDGVEVHNAKTKPREEQYNSTYRVVSVLTVLHQDWLNGKEYKCAVSNKALPAPIEKTISKAKGQPREPQVYTLPPSRDELTKNQVSLSCAVKGFYPSDIAVEWESNGQPENNYKTTPPVLDSDGSFFLVSKLTVDKSRWQQGNVFSCSVMHEALHNRFTQKSLSLSPGGGGSPSQVQLVQSGAEVKKPGASVKVSCKASGYTFTRSTMHWVRQAPGQGLEWIGYINPSSAYTNYAQKFQGRVTLTADKSTSTAYMELSSLRSEDTAVYYCASPQVHYDYNGFPYWGQGTLVTVSSGGGGSGGGGSGGGGSGGGGSDIQMTQSPSSLSASVGDRVTITCRASSSVSYMNWYQQKPGKAPKRWIYDSSKLASGVPSRFSGSGSGTDFTLTISSLQPEDFATYYCQQWSRNPPTFGQGTKVEIKRS
Consider B1, for which, in experiment [1], the cytotoxic activity is about 10 fold; the “fold decrease in T-cell activation and proliferation” value was about 3 fold. Moreover, in experiment [2], the “fold reduction in binding potency against PSMA01072” value was about 200 fold. In experiment [3], this molecule registered an EC50 of 1 nM. The molecule further returned an EC50 in experiment [4] of over 204 nM.

B2: PSMA01116 Anti-PSMA scFv x Fc x linker x Anti CD3 scFv; Anti PSMA scFv x Fc (bispecific antibody)
chain 1: QVQLVQSGAEVKKPGASVKVSCKASGYTFTDYYMHWVRQAPGQGLEWMGYFNPYNDYTRYAQKFQGRVTMTRDTSTSTVYMELSSLRSEDTAVYYCARSDGYYDAMDYWGQGTTVTVSSGGGGSGGGGSGGGGSGGGGSDIQMTQSPSSLSASVGDRVTITCRASKSISKYLAWYQQKPGKAPKLLIHSGSSLESGVPSRFSGSGSGTEFTLTISSLQPDDFATYYCQQHIEYPWTFGQGTKVEIKEPKSSDKTHTCPPCPAPPAAAPSVFLFPPKPKDTLMISRTPEVTCVVVDVSHEDPEVKFNWYVDGVEVHNAKTKPREEQYNSTYRVVSVLTVLHQDWLNGKEYKCAVSNKALPAPIEKTISKAKGQPREPQVYTLPPSRDELTKNQVSLWCLVKGFYPSDIAVEWESNGQPENNYKTTPPVLDSDGSFFLYSKLTVDKSRWQQGNVFSCSVMHEALHNHYTQKSLSLSPGGGGSPSQVQLVQSGAEVKKPGASVKVSCKASGYTFTRSTMHWVRQAPGQGLEWIGYINPSSAYTNYAQKFQGRVTLTADKSTSTAYMELSSLRSEDTAVYYCASPQVHYDYNGFPYWGQGTLVTVSSGGGGSGGGGSGGGGSGGGGSDIQMTQSPSSLSASVGDRVTITCRASSSVSYMNWYQQKPGKAPKRWIYDSSKLASGVPSRFSGSGSGTDFTLTISSLQPEDFATYYCQQWSRNPPTFGQGTKVEIK
chain 2: QVQLVQSGAEVKKPGASVKVSCKASGYTFTDYYMHWVRQAPGQGLEWMGYFNPYNDYTRYAQKFQGRVTMTRDTSTSTVYMELSSLRSEDTAVYYCARSDGYYDAMDYWGQGTTVTVSSGGGGSGGGGSGGGGSGGGGSDIQMTQSPSSLSASVGDRVTITCRASKSISKYLAWYQQKPGKAPKLLIHSGSSLESGVPSRFSGSGSGTEFTLTISSLQPDDFATYYCQQHIEYPWTFGQGTKVEIKEPKSSDKTHTCPPCPAPPAAAPSVFLFPPKPKDTLMISRTPEVTCVVVDVSHEDPEVKFNWYVDGVEVHNAKTKPREEQYNSTYRVVSVLTVLHQDWLNGKEYKCAVSNKALPAPIEKTISKAKGQPREPQVYTLPPSRDELTKNQVSLSCAVKGFYPSDIAVEWESNGQPENNYKTTPPVLDSDGSFFLVSKLTVDKSRWQQGNVFSCSVMHEALHNHYTQKSLSLSPG
notes: Heterodimer, bivalent for PSMA and monovalent for CD3; also called PSM01116
With B2, the binding result in experiment [5] is “binds”. Further, the values for the Kd (in experiment [6]; in the experiment with mIgG Fc-human PSMA ECD; with mIgG Fc-cyno PSMA ECD) were 5.2 nM, 4.1 nM and 6.2 nM, respectively.

Source of the values: patent US20240301086A1 (APTEVO RESEARCH AND DEVELOPMENT, published 2024).
